From the DeepSol protein solubility set come the findings set out here.

The data set is described as follows: soluble on expression in E. coli; label from the status in PepcDB or PDB records.
Consider “MVNEYKKILLLKGFELMDDYHFTSIKSLLAYDLGLTTKMQEEYNRIKITDLMEKKFQGVACLDKLIELAKDMPSLKNLVNNLRKEKSKVAKKIKTQEKAPVKKINQEEVGLAAPAPTARNKLTSEARGRIPVAQKRKTPNKEKTEAKRNKVSQEQSKPPGPSGASTSAAVDHPPLPQTSSSTPSNTSFTPNQETQAQRQVDARRNVPQNDPVTVVVLKATAPFKYESPENGKSTMFHATVASKTQYFHVKVFDINLKEKFVRKKVITISDYSECKGVMEIKEASSVSDFNQNFEVPNRIIEIANKTPKISQLYKQASGTMVYGLFMLQKKSVHKKNTIYEIQDNTGSMDVVGSGKWHNIKCEKGDKLRLFCLQLRTVDRKLKLVCGSHSFIKVIKAKKNKEGPMNVN”, for which the “soluble on expression in E. coli” value is “soluble”. Regarding “MADRKLVVVFGATGAQGGSVARALLEDGTFRIRVVTRNPEQRAAKELKQQGAEVVRGDQDDAASMELALAGAHATFIVTNYWETCSQDREVQQPHQWDQVFKQGKLLADLAKRLGLHYVVYSGLENIRKLTAGKLAAGHFDGKGEVEEYFRDIGVPMTSVRLPCYFENLLSYFLPQKAADGKSFLLDLPMGDVPMDGMSVSDLGPVVLSLLKKPEEYVGQNIGLSTCRHTAEEYAALLSKHTGKAVHHAKTTPEDYEKLGFQGAQDLANMFRFYTLKPDRNIHLTLRLNPKAQTLDQWLEQHKGDFAQL”, the “soluble on expression in E. coli” value was “soluble”. Take “MKHYTVAINGLPQEFEGFTILHLTDLHAKKYGDQQDKLIRLINRQNFDMVAMTGDFIDKDNPDLEPTLELIQGLAAKPIFFVPGNHEWRYDFSIKSSLEEHGVKILDNKNAELARGDARLWIAGVDDPYLHRDKLEEALHGIADAQPKLLLAHAPNIFKPAAESGVELVLVGHTHGGQVRLPLIGAIVAPGQGLFPQYDYGHFTAGSTNMIVNGGLGESTLPLRFCSRPEIVLVKLVSAPLEHHHHHH”: the “soluble on expression in E. coli” value is listed as “not soluble”. Turning to “MGSDKIHHHHHHMTPEQFEVKANPALWERLGMNVERFSGMPKMLTEAFRGIYLSQKNRPARMEYFDGMIAELHSGRVEELVTAKDAGRPVVGTFCVYVPEEVIMAVGGICVGLCGGSQGSIPDAEKVLPRNICPMVKSAFGFKLGKICPYFQAVDLVYGETTCDAKKKTWELLDREVPTHVMEIPQMKRARDKALWLEEVKDFTSKMEEVSGRKATAEGIGAAIRVMNAKRLALQRLNDLRHHTPSPISGKDMLLIQQIAFYDDPARFTANVNELCDELDERIAAGVAVAPAATPRVMVSGTPMALPNWKLHHLIESAGAVVVNEESCIGTRYYKDLTDESTATVDEQLSLLTDRYMKIDCSCFTPNDDRIEQVLVEYRASGAQGLIDYCLQFCHTYNIEAVKLREMCEREGIPFLAIETDYSPEDVGQLQTRIEAFIEQIRG”, the “soluble on expression in E. coli” value is listed as “not soluble”. As to “MSLIQEYVPGKQVTLAHIIASPNKEIYTKLGLPEGTSNALGILTITPSEAAIIAVDIATKSGDIQIGFIDRFSGSVVISGDVSSVEAALQAVIEGLQQILNFSVTCKITRTEGGSHHHHHH”, the “soluble on expression in E. coli” value is reported as “soluble”. “MGSDKIHHHHHHMEILQRQLLFKLAVCQGIGNLGILKVLQEAIAQKRVDFSSTEIIRIAEIKKYRELFEQSWLHHTIHSEALYIRQCQHQFMTILDAVYPKLLREIYNPPAILFYRGNLQLLSRRKIGIVGARYATSYGLRVTEALVPKIVKEGFTIVSGLAKGIDSRSHEMAIQNGGQTIGILGTGLDVYYPYEKKELQQTMKQNQLVLTEYVNGSGPKKYHFPARNRIIAGLSLGVCVMEARKNSGSLITAQAAMDYGREVFAVPGSIFQSFSTGCHELIQDGAKCVQTIDDICEEL”: the “soluble on expression in E. coli” value is given as “not soluble”. In the case of “MSRRSQWKQVANGMLGDVSKARSVEERENVPEKACGFCKNFSENAYASDGRGYCKKLKVGSDIKVNPPVYVMEGQASLTVLFNSDGAGCEYFNRQDLIDTDGNEVNDPSYRRVQRQMEKAIK”, the “soluble on expression in E. coli” value is listed as “not soluble”. For “MGSDKIHHHHHHMAIVRTVLGDITPDQAGSTLTHEHIRYAYPGCELDHRCVWDFDFVAEDVGKQFEEMREGCGIKTVVELTPPEIGRHPELFAQIARRSGMNIVATTGFFPEANAMGIPFHWRRQRKEDVVNMLIRDLTEGMIYDGQKTPYRAGILKAATGSLTAKTRTPVNEKGRRIGNVETHVISAIAAAQREVGCAINTHTQPLDYAVCNPGIELLDELEEGGADPTKVIIGHAFVHPNIDQLKAICERGASVQVDHIGIPWQNDSRAQLDELIAVAMCQLADLGHLDKLVVSYDKFFSHARGPVTEEEPEQLNELVPNDYIMTEFAPRLERKGFGARELHQVMVENPKRLLAF” the value was “not soluble”. In the case of “MLTEERHQKILQLLDQKSVVKSQELASLFNASESTIRRDLQELEDANLLERIHGGAKRILNLGFEQNMTEKSIKNTHEKQKIASLAVSCVQDGDMIYLDAGSTTLEMIPFLVGKQIHVVTNSVHHAAKLSDMEIPTIMLGGTLKLSTKAIIGATSMEQLQHFRFNKAFLGTNGAHLEFGLTTPDPEEAALKALAIHQAETAYVLLDHTKFNEVTFTKVEELESVTLLTDYCPAESLQGFQQKTILMEANKLEHHHHHH”, the “soluble on expression in E. coli” value is “soluble”. Take “NLMYYGTFIIDNPVKKGAEKFIAQCREISVPVFVATGDTTKAAENIAKVLCPANAGKIVTLRADQIDEKGIEFLNEENYPSDSTVIFSGINEAILNRFQKLMGREGAKRPVVIFAEMSTEGKGVLARYLKDHHYFVVANGDGTNDVMMMKNSNVVIAHHSDDGTFAPGVDGLTN”: the “soluble on expression in E. coli” value is “not soluble”. For “DVVSYVSHATQQRLQNLVEKISETAQQKNFSYKDDDRYEQASDVRAQLKFFEQLDQIEKQRKDEQEREILMRAAKSRSRQEDPEQLRLKQKAKEMQQQELAQMRQRDANLTALAAIGPRKKRKVDCPGPGSGAEGSGPGSVVPGSSGVGTPRQFTRQRITRVNLRDLIFCLENERETSHSLLLYKAFLK” the value was “soluble”. With “MKINYQELANNIKLWAKELGFQKVGICDVDLSQHEAALEQWLEAGYHGSMDWMARHGVMRARPDELHPGTIRVISARMDYLPPKAGFASNLKDPNQAYISRYALGRDYHKLIRNQLKKLGQKIEEEVEQLGYRPFVDSAPILERPLAEKAGLGWTGKHSLLLDKNAGSWFFLGELLVDIPLPVDTPVENQCGKCTACISSCPTNAILENGVIDARRCISYLTIENSGIIPEEFRSLMGNRIYGCDDCQLVCPWNREAEITQQADFHRRSSLGNSDLISLFSWDESTFLKNMEGSAIRRIGHIQWLRNLSIAMGNAPHSEAIISALQDRLGLDENLDIHIQWAIKQQSLVITSNRKEQRLIRIIEKGLPRDA”, the “soluble on expression in E. coli” value was “not soluble”.

Regarding “GMTAPTLSRAAMEKVIRTYYDGCNEADEAKMIACFVPEAVHYFPAGMYGGAFRGAAQIAHRWRTAVETLGSYWTIDALVIDAETAEAAIEWTHFKTNQDKVLRGAECVEFDRASGLIREIRAFYASPQAEGIARLELGDFDYAGRGYRVTSPRKPA”, the “soluble on expression in E. coli” value was “soluble”. As for “MATVSRLRPYATTVFAEMSALATRIGAVNLGQGFPDEDGPPKMLQAAQDAIAGGVNQYPPGPGSAPLRRAIAAQRRRHFGVDYDPETEVLVTVGATEAIAAAVLGLVEPGSEVLLIEPFYDSYSPVVAMAGAHRVTVPLVPDGRGFALDADALRRAVTPRTRALIINSPHNPTGAVLSATELAAIAEIAVAANLVVITDEVYEHLVFDHARHLPLAGFDGMAERTITISSAAKMFNCTGWKIGWACGPAELIAGVRAAKQYLSYVGGAPFQPAVALALDTEDAWVAALRNSLRARRDRLAAGLTEIGFAVHDSYGTYFLCADPRPLGYDDSTEFCAALPEKVGVAAIPMSAFCDPAAGQASQQADVWNHLVRFTFCKRDDTLDEAIRRLSVLAERPATGVPRGLEHHHHHH”, the “soluble on expression in E. coli” value is “soluble”.

Regarding “MARKRIITPEKKELIRNLISEYNITSAKDLQEALKDLLGDTIQNMLEAELDEHLGYEKYESTEEAKSNYRNGYTSKTLKSSVGQVEIDIPRDRNAEFEPKIVPRYKRDISEIENKIIAMYARGMSTREINEQIQEIYGFEVSAEMVSKITDKILPEIEEWQKRPLGEVYPIVFIDAIHFSVKNDGIVGKKAIYIVLAIDIEGQKDVIGIYVGENESSKFWLSVLNDLKNRGVKDILILCADALSGIKDAINAAFPNTEYQRCIVHQIRNTLKYVSDKDRKEFARDLKRIYTAPNEKAGYDQMLEVSEKWEKKYPAAMKSWKSNWDVICPFFKYSEELRKIMYTTNTIESLNSSYRRINKSRTVFPGDQSLLKSIYLATVKITSKWTMRYKNWGLILGQLQIMFEGRI”, the “soluble on expression in E. coli” value was “not soluble”.

For the sequence “MSKIKIAIIGNGMVGHRFIEDLLDKADKDQFDITVFCEEPRIAYDRVHLSSYFSHHTAEELSLVREGFYEKQGVKVLVGERAITINRAEKVIHSNSGRSLYYDKLVMATGSYPWIPPIKGSEGQDCFVYRTIEDLNAIEACTRRSKRGAVIGGGLLGLEAAGALKSLGVETHVIEFAPVLMAEQLDPMGGDQLRQKIERMGVRVHTGKNTQEIVHSGQNSRKTMLFADGTQLEVDFIVFSTGIRPQDKLANQCGLATARRGGIAINDYCQTSDPDVYAIGECASWQERTFGLVAPGYKMAQVAADHLLGRENAFLGADMSAKLKLLGVDVGGIGDAHGRTEGARSYVYLDESKEIYKRLVVSADNKTLLGAVLVGDTTDYGNLLQLALNNITLPENPDSLILPAHAGNKPTIGVDSLPDSAQICSCFDVTKGDIIRAIGQGCQTVAALKSATKAGTGCGGCIPLVTQVLNAELSKQGIEVNNHLCEHFAYSRQELYHLIRVEGIKTFTELREKYGKGYGCEVCKPTVGSLLASCWNEYVLEPQHTPLQDTNDNFLGNIQKDGTYSIIPRSPGGEITPDGLLVVGQIAKEYNLYTKLTGSQRIGMFGAQKDDLPAIWARLIDAGFETGHAYAKALRMAKTCVGSTWCRFGVGDSVGFGVALEHRYKGIRAPHKIKFGISGCTRECAEAQGKDVGIIATENGWNLYVCGNGGMKPRHADLLAADLDEETLMRYLDRFMMFYIRTADKLQRTSVWLESLEGGIRYLQLVILEDKLGINDQLEAEIARLRDKVACEWKATVENPAAQVRFAHFINSSLRDPNVQVVREREQHRPARPDERIPVRVLELEDNA”, the “soluble on expression in E. coli” value is “not soluble”.

Take “MSPEYAMEGIFSVKSDVFSFGVLVLEIVSGKRNRGFHNSGQDNNLLGYTWENWKEGKGLEIVDSIIVDSSSSMSLFQPHEVLRCIQIGLLCVQERAEDRPKMSSVIVPFCTR”: the “soluble on expression in E. coli” value was “not soluble”. Turning to “RPHVVKVYSEDGACRSVEVAAGATARHVCEMLVQRAHALSDETWGLVECHPHLALERGLEDHESVVEVQAAWPVGGDSRFVFRKNFA”, the “soluble on expression in E. coli” value is reported as “soluble”.

For “MSLPPCPQCASEYTYEDGGQYICPECAHEWNETESAADLAAQVRDANGAVLQNGDTVILIKDLKVKGSSMVIKQGTKVKGIRLQEGDHNIGCKIDGSAMNLKSEFVKKA”, the “soluble on expression in E. coli” value is given as “not soluble”.

Consider “MTVVLTLLLLLVLVGCAKPKVEQTVKLGGAVKTIGDLVVLSGNSNLPKGAVVQIVMKEIEGGKQVLEEKVKVGGDGSYSWSAKRPERAKEYELDVMFLPELQPKHVKEKYGEKGELIKKDSSGRVEYQTDGQTYVGIKMYDRILKIGDGMGGQQSMLAETLPPPPPSY”, for which the “soluble on expression in E. coli” value is listed as “not soluble”.

For the sequence “SKKVIVIAGTTGVGKSQLSIQLAQKFNGEVINSDSMQVYKDIPIITNKHPLQEREGIPHHVMNHVDWSEEYYSHRFETECMNAIEDIHRRGKIPIVVGGTHYYLQTLFNKRVDTKSSERKLTRKQLDILESTDPDVIYNTLVKCDPDIATKYHPNDYRRVQRMLEIYYKTGKKPSETFNEQKITLKFDTLFLWLYSKPEPLFQRLDDRVDDMLERGALQEIKQLYEYYSQNKFTPEQCENGVWQVIGFKEFLPWLTGKTDDNTVKLEDCIERMKTRTRQYAKRQVKWIKKMLIPDIKGDIYLLDATDLSQWDTNASQRAIAISNDFISNRPIKQERAPKALEELLSKGETTMKKLDDWTHYTCNVCRNADGKNVVAIGEKYWKIHLGSRRHKSNLKRNTRQADFEKWKI”, the “soluble on expression in E. coli” value is recorded as “soluble”.
